Assay results from paper PMC4500839 (Nature communications, 2015).

Target: gp120BaL (HIV-1 group M subtype B, isolate BaL …, UniProt Q6TAP7, strain)
Assay: ELISA

B1: PGT128 (antibody, V domains shown)
VH: QPQLQESGPTLVEASETLSLTCAVSGDSTAACNSFWGWVRQPPGKGLEWVGSLSHCASYWNRGWTYHNPSLKSRLTLALDTPKNLVFLKLNSVTAADTATYYCARFGGEVLRYTDWPKPAWVDLWGRGTLVTVSS
VL: QSALTQPPSASGSPGQSITISCTGTSNNFVSWYQQHAGKAPKLVIYDVNKRPSGVPDRFSGSKSGNTASLTVSGLQTDDEAVYYCGSLVGNWDVIFGGGTKLTVL
binding result: binds
